Measurements as given in paper PMC8254039, “Oxalate decarboxylase uses electron hole hopping for catalysis” (The Journal of Biological Chemistry, 2021).
Substitutions are numbered along the chain they refer to. Names may count otherwise.

Tests used:
[1] = substrate: O=C(O)C(=O)O; test: purified protein; conditions: pH 4.2, 25 °C
[2] = molecular target: the molecule itself; test: native gel or EMSA; native PAGE of the mutant proteins after purification, compared with WT (Fig. S3); self-assembly of the subunits
[3] = 50 mM poly buffer, 500 mM NaCl, Triton X-100, o-phenylenediamine, 1.93 Mn per subunit
[4] = same buffer, 0.55 Mn per subunit
[5] = same buffer, 1.34 Mn per subunit
[6] = same buffer, 0.58 Mn per subunit
[7] = same buffer, 1.89 Mn per subunit
[8] = same buffer, 0.33 Mn per subunit

B1: oxalate decarboxylase (OxDC) of Bacillus subtilis, wild type, His6-tagged (enzyme)
chain: MKKQNDIPQPIRGDKGATVKIPRNIERDRQNPDMLVPPETDHGTVSNMKFSFSDTHNRLEKGGYAREVTVRELPISENLASVNMRLKPGAIRELHWHKEAEWAYMIYGSARVTIVDEKGRSFIDDVGEGDLWYFPSGLPHSIQALEEGAEFLLVFDDGSFSENSTFQLTDWLAHTPKEVIAANFGVTKEEISNLPGKEKYIFENQLPGSLKDDIVEGPNGEVPYPFTYRLLEQEPIESEGGKVYIADSTNFKVSKTIASALVTVEPGAMRELHWHPNTHEWQYYISGKARMTVFASDGHARTFNYQAGDVGYVPFAMGHYVENIGDEPLVFLEIFKDDHYADVSLNQWLAMLPETFVQAHLDLGKDFTDVLSKEKHPVVKKKCSK
notes: oxalate decarboxylase (OxDC), Bacillus subtilis, YvrK gene; Vector printed as PET32A with the YvrK gene; also called WT OxDC; WT; source: E. coli (overexpressed), purified (nickel-NTA, HiTrap Q anion exchange, Superdex 200 gel filtration)
Question: B1 was tested. Which Km [1, 3] did it give?
Answer: 33.3 ± 0.4 mM

Question: What about the kcat [1, 3] of the same protein?
Answer: 89.2 ± 1.4 s⁻¹

Question: Does B1 bind [2]?
Answer: binds

B2: oxalate decarboxylase (OxDC) of Bacillus subtilis, W96F mutant, His6-tagged (enzyme)
chain: B1 chain with W96F
notes: oxalate decarboxylase (OxDC), Bacillus subtilis, YvrK gene, with W96F; 385 residues per subunit; Quaternary assembly in the crystal agrees with that of the hexameric wild type (5VG3); source: E. coli (overexpressed), purified (nickel-NTA, HiTrap Q anion exchange, Superdex 200 gel filtration)
Question: For B2, which Km [1, 4] is on record?
Answer: 16.0 ± 1.5 mM

Question: What about the kcat [1, 4] of the same protein?
Answer: 1.00 ± 0.03 s⁻¹

Question: Does B2 bind [2]?
Answer: binds

B3: oxalate decarboxylase (OxDC) (Bacillus subtilis subsp. subtilis str. 168; W96Y) (protein)
chain: B1 chain with W96Y
Question: With B3 as the protein, how does the Km [1, 5] read?
Answer: 3.7 ± 0.9 mM

Question: What about the kcat [1, 5] of the same protein?
Answer: 5.3 ± 0.9 s⁻¹

B4: oxalate decarboxylase (OxDC) of Bacillus subtilis, W274F mutant, His6-tagged (enzyme)
chain: B1 chain with W274F
notes: oxalate decarboxylase (OxDC), Bacillus subtilis, YvrK gene, with W274F; 385 residues per subunit; Said to assemble like the wild type on native PAGE; no crystal structure; source: E. coli (overexpressed), purified (nickel-NTA, HiTrap Q anion exchange, Superdex 200 gel filtration)
Question: Which results are given for B4?
Answer: Km [1, 6]: 6.7 ± 0.3 mM; kcat [1, 6]: 1.10 ± 0.03 s⁻¹; binding result [2]: binds

B5: oxalate decarboxylase (OxDC) (Bacillus subtilis subsp. subtilis str. 168; W274Y) (protein)
chain: B1 chain with W274Y
Question: Which results are given for B5?
Answer: Km [1, 7]: 10.3 ± 3.1 mM; kcat [1, 7]: 23.9 ± 2.8 s⁻¹

B6: oxalate decarboxylase (OxDC) (Bacillus subtilis subsp. subtilis str. 168; W274Y/W96Y) (protein)
chain: B1 chain with W96Y, W274Y
Question: Which Km [1, 8] does the source give for B6 here?
Answer: 5.6 ± 0.5 mM

Question: And the kcat [1, 8]?
Answer: 0.20 ± 0.01 s⁻¹

B7: oxalate decarboxylase (OxDC) of Bacillus subtilis, W96Y mutant, His6-tagged (enzyme)
chain: B1 chain with W96Y
notes: oxalate decarboxylase (OxDC), Bacillus subtilis, YvrK gene, with W96Y; 385 residues per subunit; Quaternary assembly in the crystal agrees with that of the hexameric wild type (5VG3); source: E. coli (overexpressed), purified (nickel-NTA, HiTrap Q anion exchange, Superdex 200 gel filtration)
Question: Does B7 bind [2]?
Answer: binds

B8: oxalate decarboxylase (OxDC) of Bacillus subtilis, W274Y mutant, His6-tagged (enzyme)
chain: B1 chain with W274Y
notes: oxalate decarboxylase (OxDC), Bacillus subtilis, YvrK gene, with W274Y; 385 residues per subunit; Said to assemble like the wild type on native PAGE; no crystal structure; source: E. coli (overexpressed), purified (nickel-NTA, HiTrap Q anion exchange, Superdex 200 gel filtration)
Question: Does B8 bind [2]?
Answer: binds

B9: oxalate decarboxylase (OxDC) of Bacillus subtilis, W96F/W274F double mutant, His6-tagged (enzyme)
chain: B1 chain with W96F, W274F
notes: oxalate decarboxylase (OxDC), Bacillus subtilis, YvrK gene, with W96F and W274F; 385 residues per subunit; Said to assemble like the wild type on native PAGE; no crystal structure; source: E. coli (overexpressed), purified (nickel-NTA, HiTrap Q anion exchange, Superdex 200 gel filtration)
Question: Does B9 bind [2]?
Answer: binds

B10: oxalate decarboxylase (OxDC) of Bacillus subtilis, W96Y/W274Y double mutant, His6-tagged (enzyme)
chain: B1 chain with W96Y, W274Y
notes: oxalate decarboxylase (OxDC), Bacillus subtilis, YvrK gene, with W96Y and W274Y; 385 residues per subunit; Said to assemble like the wild type on native PAGE; no crystal structure; source: E. coli (overexpressed), purified (nickel-NTA, HiTrap Q anion exchange, Superdex 200 gel filtration)
Question: Does B10 bind [2]?
Answer: binds
